Experimental data reported in paper PMC4341974 (Science translational medicine, 2014).
Changes are numbered by the printed parent chain. Like-named read-outs stand apart in the source and are kept apart here. One block for each molecule: values may come before it.

Tests used:
[1] = target: integrin αvβ8 on β8-expressing HT1080 cells (wild-type β8) (human (endogenous in HT1080) | human) (UniProt P06756); experiment: flow cytometry on cells
[2] = target: T1, integrin αvβ8 (construct of the affinity and cross-competition measurements, not told) (Homo sapiens, UniProt P06756;P26012); experiment: flow cytometry on cells
T1 sequence (P06756 31-1048, chain 1 of 2): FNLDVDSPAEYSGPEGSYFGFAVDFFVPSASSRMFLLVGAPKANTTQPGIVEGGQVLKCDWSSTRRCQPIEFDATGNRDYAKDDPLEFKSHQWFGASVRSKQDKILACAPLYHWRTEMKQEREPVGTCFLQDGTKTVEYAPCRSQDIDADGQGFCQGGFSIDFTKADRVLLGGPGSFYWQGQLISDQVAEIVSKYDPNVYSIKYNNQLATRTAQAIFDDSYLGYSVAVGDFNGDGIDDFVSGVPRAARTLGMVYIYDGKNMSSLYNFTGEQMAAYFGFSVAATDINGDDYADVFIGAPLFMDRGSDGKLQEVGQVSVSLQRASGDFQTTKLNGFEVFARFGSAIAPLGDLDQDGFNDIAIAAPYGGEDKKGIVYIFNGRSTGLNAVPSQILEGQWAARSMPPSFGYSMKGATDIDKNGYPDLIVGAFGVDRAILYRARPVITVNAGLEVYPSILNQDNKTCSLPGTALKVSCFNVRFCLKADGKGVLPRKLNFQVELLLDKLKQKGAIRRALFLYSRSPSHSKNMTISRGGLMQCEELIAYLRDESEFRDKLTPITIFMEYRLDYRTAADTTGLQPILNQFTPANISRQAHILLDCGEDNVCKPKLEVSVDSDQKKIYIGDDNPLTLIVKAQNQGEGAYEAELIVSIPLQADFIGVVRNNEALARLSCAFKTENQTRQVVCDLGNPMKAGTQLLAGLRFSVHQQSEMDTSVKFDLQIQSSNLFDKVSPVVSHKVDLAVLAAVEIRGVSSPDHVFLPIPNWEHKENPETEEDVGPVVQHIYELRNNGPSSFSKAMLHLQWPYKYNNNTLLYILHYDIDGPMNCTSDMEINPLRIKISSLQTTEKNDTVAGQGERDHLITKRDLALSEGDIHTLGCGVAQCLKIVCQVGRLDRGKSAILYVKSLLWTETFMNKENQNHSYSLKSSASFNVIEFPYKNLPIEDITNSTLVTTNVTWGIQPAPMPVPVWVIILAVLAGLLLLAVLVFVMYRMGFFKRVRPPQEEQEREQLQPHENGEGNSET
T1 sequence (P26012 43-769, chain 2 of 2): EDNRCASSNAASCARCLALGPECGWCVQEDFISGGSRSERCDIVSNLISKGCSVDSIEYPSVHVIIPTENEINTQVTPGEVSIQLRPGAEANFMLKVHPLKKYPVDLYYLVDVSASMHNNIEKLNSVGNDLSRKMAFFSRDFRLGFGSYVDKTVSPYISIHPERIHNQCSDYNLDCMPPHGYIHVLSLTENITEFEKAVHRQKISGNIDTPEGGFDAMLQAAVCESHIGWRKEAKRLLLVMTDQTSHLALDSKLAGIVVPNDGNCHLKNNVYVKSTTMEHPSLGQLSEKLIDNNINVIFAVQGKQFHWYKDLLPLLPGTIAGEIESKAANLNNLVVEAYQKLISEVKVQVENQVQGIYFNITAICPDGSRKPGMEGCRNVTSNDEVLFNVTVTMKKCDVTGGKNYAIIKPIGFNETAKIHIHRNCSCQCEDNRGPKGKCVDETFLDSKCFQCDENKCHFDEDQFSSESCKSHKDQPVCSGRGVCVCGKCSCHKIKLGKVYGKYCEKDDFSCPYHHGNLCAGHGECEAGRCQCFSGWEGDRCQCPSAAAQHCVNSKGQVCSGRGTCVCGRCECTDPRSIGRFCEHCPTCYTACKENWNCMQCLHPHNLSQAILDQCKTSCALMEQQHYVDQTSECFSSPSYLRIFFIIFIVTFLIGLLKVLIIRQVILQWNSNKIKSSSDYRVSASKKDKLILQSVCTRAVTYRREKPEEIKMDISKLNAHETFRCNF

[3] = target: T1, integrin αvβ8 (construct of the …)

integrin αvβ8 on β8-expressing HT1080 cells (wild-type β8) (human (endogenous in HT1080) | human), sequence (P06756 31-1048, chain 1 of 2): as the sequence (P06756 31-1048, chain 1 of 2) above
integrin αvβ8 on β8-expressing HT1080 cells (wild-type β8) (human (endogenous in HT1080) | human), sequence (P26012 43-769, chain 2 of 2, further chain): as the sequence (P26012 43-769, chain 2 of 2) above

percent decrease of B5 binding to β8-expressing HT1080 cells [1]: 29%
Molecule: latency-associated peptide (from UniProt P01137 30-278) (ligand)

Kd [2]: 118 nM
B1: 37E1 single-chain antibody fragment (scFv) on yeast (scFv, V domains shown)
VH: EVQLVESGGGLVQPGGSLNLSCAASGFVFSRYWMSWVRQAPGKGLEWIGEINPDSSTINYTSSLKDKFIISRDNAKNTLYLQMNKVRSEDTALYYCACLITTEDYWGQGTSVTVSS
VL: QIVLTQSPSSMYASLGERVTIPCKASQDINSYLSWFQQKPGKSPKTLIYRANRLVDGVPSRFSGSGSGQDYSLTISSLEYEDMGIYYCLQYDEFPYTFGGGTKLEIK

Further lines, the molecule ahead of its results:

B2: B5 intact IgG (antibody, V domains shown)
VH: B1 VH with A24V
VL: B1 VL with R50Y
Kd [3]: 0.54 nM

B3: B5 single-chain antibody fragment (scFv) on yeast (scFv, V domains shown)
VH: B1 VH with A24V
VL: B1 VL with R50Y
Kd [2]: 15.4 nM
